Drawing on patent publication CN114149501A (TENCEL BIOMEDICINE CO LTD, dated 2022), this text covers Kd, koff and kon for 1 molecule.

One may read the Kd as a measure of binding affinity in units of concentration. A higher Kd goes with a looser complex. Broadly, the koff is the rate constant with which the complex falls apart. Low readings indicate a long-lived complex, high ones a short-lived complex. One may read the kon as a measure of how fast the partners come together.

Test [1] has as its target T1, 人源重组C5蛋白 (Sino Biologica, Cat#13416-H18H) (human, UniProt P01031 19-1676).
T1 construct: also called 人源C5蛋白; 全长C5
The test can be described thus: BLI (Octet), antibody on AHC sensor, C5 0.4688-30 nM; run no. 4. A general note: Biolayer interferometry detects binding as a change in optical thickness at a sensor tip.

Test [2] addresses T1, 人源重组C5蛋白 (Sino Biologica, …). The test can be described thus: BLI (Octet), antibody on AHC sensor, C5 0.4688-30 nM; run no. 3.
For test [3] the target is unchanged. Description: BLI (Octet), antibody on AHC sensor, C5 0.4688-30 nM; run no. 5.
For test [4] the target is unchanged. Description: BLI (Octet), antibody on AHC sensor, C5 0.4688-30 nM; run no. 1.
Test [5] has the same target. Description: BLI (Octet), antibody on AHC sensor, C5 0.4688-30 nM; run no. 2.

T1 sequence (P01031 19-1676 limits assumed): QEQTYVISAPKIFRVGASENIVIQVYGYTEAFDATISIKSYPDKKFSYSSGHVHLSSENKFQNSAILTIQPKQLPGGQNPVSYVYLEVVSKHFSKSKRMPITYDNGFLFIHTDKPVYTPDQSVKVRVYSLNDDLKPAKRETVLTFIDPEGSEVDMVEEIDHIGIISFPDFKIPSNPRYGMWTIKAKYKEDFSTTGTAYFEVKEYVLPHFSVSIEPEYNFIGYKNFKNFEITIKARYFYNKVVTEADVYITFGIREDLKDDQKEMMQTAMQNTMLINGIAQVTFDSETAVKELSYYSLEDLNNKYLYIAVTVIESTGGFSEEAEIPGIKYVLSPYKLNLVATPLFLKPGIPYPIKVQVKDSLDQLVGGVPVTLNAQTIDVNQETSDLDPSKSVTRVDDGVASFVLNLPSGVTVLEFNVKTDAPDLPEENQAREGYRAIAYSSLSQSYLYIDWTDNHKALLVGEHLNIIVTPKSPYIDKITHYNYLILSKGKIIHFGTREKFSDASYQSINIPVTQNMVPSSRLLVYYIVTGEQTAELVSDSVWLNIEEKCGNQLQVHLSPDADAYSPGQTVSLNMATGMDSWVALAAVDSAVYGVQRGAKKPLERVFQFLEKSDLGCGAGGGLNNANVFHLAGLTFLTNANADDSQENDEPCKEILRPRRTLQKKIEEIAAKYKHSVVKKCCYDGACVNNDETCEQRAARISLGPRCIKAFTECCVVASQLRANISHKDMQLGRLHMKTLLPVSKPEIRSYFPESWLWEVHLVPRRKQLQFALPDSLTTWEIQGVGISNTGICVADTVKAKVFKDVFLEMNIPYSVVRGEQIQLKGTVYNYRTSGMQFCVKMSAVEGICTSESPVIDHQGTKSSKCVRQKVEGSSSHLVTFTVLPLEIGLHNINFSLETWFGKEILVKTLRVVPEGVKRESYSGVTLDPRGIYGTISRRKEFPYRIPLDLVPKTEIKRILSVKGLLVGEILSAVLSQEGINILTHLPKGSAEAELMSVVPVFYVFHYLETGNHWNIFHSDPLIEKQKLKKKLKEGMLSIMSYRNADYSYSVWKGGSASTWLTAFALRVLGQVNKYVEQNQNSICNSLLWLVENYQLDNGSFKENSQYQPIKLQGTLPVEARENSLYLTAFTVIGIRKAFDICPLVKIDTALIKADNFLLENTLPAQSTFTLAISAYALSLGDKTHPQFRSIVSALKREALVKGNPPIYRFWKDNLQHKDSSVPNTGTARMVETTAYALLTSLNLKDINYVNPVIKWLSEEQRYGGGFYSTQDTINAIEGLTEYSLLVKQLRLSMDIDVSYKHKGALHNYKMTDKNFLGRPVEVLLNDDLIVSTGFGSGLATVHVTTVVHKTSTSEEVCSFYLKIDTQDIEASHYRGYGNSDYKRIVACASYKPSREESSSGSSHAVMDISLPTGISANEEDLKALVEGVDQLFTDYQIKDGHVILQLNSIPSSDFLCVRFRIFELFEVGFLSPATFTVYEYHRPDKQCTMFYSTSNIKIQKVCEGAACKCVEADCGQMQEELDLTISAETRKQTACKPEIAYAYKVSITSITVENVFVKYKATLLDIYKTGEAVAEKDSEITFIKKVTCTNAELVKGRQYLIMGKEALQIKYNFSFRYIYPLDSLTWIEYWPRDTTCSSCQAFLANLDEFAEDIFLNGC

B1: CR3#75/IgG4 (antibody, V domains shown)
VH: EVQLVQSGAEVKKPGATVKISCKVSGYTFTDYYTHWVQQAPGKGLEWMGLVDPEGGETIYAEKFQGRVTITADASTDTAYMELSSLRSEDTAVYYCATGSFLAAPDYWGQGTTVTVSS
VL: not shown
notes: also called 抗C5抗体CR3#75; S125(38#)-3
For the molecule B1, the Kd stood at 0.722 nM in test [1]; 0.616 nM in test [2]; 0.72 nM in test [3]; 0.366 nM in test [4]; 0.614 nM in test [5]. Moreover, the koff came to 0.000307 s⁻¹ in test [1]; 0.000279 s⁻¹ in test [2]; 0.000309 s⁻¹ in test [3]; 0.000151 s⁻¹ in test [4]; 0.0003 s⁻¹ in test [5]. In addition, the kon in test [1] came out at 425000 M⁻¹ s⁻¹; in test [2], 452000 M⁻¹ s⁻¹; in test [3], 429000 M⁻¹ s⁻¹; in test [4], 413000 M⁻¹ s⁻¹; in test [5] it was 488000 M⁻¹ s⁻¹.
